Assay [1] addresses Bunyamwera virus (BUNV) nucleoprotein (N) (Bunyamwera virus) (UniProt P16495). Kind of assay: co-IP; as a2, but with a viral transcript co-expressed: N from pT7riboBUNS (also full-length S antigenome RNA), or additionally pT7riboBUNM(+) or minigenome pT7riboBUNMREN(-); bands quantified by phosphorimager and normalised to expression.
For assay [2], the target named is V5-tagged BUNV L protein expressed from a transfected cDNA construct (Bunyamwera virus) (UniProt P20470). The description is as above.

The substance “V5-tagged BUNV L protein expressed from a transfected cDNA construct (from UniProt P20470 1-2238)” registered a fold more co-precipitated than in cells transfected with pTM1-BUNS in assay [1] of 8 fold. As for “Bunyamwera virus (BUNV) nucleoprotein (N) (from UniProt P16495 1-233) (natural protein)”, the fold more co-precipitated than in cells transfected with pTM1-BUNS in assay [2] turned out to be 5 fold.

The values above are taken from paper PMC2885054.
